In patent US20170081400A1 (CEPHALON, published 2017):
Substitutions are numbered along the chain they refer to.

T1: human TL1A extracellular domain with N-terminal HIS and FLAG tag (human, UniProt O95150 72-251)
T1 construct: the whole entry is named
T1 sequence: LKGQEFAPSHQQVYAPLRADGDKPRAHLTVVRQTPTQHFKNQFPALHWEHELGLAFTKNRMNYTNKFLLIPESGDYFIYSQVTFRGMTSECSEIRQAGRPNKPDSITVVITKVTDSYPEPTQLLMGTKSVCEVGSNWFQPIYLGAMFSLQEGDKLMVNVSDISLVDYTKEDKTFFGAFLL

T2: human TL1A extracellular domain with N-terminal HIS and FLAG tag (human) (UniProt O95150)
T2 sequence: T1 sequence

B1: 320-313 (antibody, human IgG1, name in Kabat numbering, V domains shown)
VH: QVQLVQSGAEVKKPGASVKVSCKASGYTFTSYDINWVRQAPGQGLEWMGWLNPNSGNTGYAQKFQGRVTMTADRSTSTAYMELSSLRSEDTAVYYCAREVPETAAFEYWGQGTLVTVSS
VL: QSVLTQPPSVSGAPGQRVTISCTSSSSDIGAGLGVHWYQQLPGTAPKLLIEGYYNRPSGVPDRFSGSKSGTSASLTITGLLPEDEGDYYCHSYDGTLSALFGGGTKLTVLG
notes: human IgG1, lambda
B2: 320-441 (antibody, human IgG1, name in Kabat numbering, V domains shown)
VH: B1 VH with Y32D
VL: B1 VL with H91Q
notes: human IgG1, lambda
B3: 320-436 (antibody, human IgG1, name in Kabat numbering, V domains shown)
VH: B1 VH with S31W
VL: B1 VL with H91Q
notes: human IgG1, lambda
B4: 320-442 (antibody, human IgG1, name in Kabat numbering, V domains shown)
VH: B1 VH with Y32H
VL: B1 VL with H91Q
notes: human IgG1, lambda
B5: 320-444 (antibody, human IgG1, name in Kabat numbering, V domains shown)
VH: B1 VH with Y32L
VL: B1 VL with H91Q
notes: human IgG1, lambda
B6: 320-455 (antibody, human IgG1, name in Kabat numbering, V domains shown)
VH: B1 VH with I34S
VL: B1 VL with H91Q
notes: human IgG1, lambda
B7: 320-314 (antibody, human IgG1, name in Kabat numbering, V domains shown)
VH: B1 VH
VL: B1 VL with H91K
notes: human IgG1, lambda
B8: 320-328 (antibody, human IgG1, name in Kabat numbering, V domains shown)
VH: B1 VH
VL: B1 VL with H91Q, Y93H
notes: human IgG1, lambda
B9: 320-454 (antibody, human IgG1, name in Kabat numbering, V domains shown)
VH: B1 VH with I34A
VL: B1 VL with H91Q
notes: human IgG1, lambda
B10: 320-452 (antibody, human IgG1, name in Kabat numbering, V domains shown)
VH: B1 VH with D33W
VL: B1 VL with H91Q
notes: human IgG1, lambda
B11: 320-437 (antibody, human IgG1, name in Kabat numbering, V domains shown)
VH: B1 VH with S31Y
VL: B1 VL with H91Q
notes: human IgG1, lambda
B12: 320-447 (antibody, human IgG1, name in Kabat numbering, V domains shown)
VH: B1 VH with D33S
VL: B1 VL with H91Q
notes: human IgG1, lambda
B13: 320-368 (antibody, human IgG1, name in Kabat numbering, V domains shown)
VH: B1 VH
VL: B1 VL with H91Q, S98K
notes: human IgG1, lambda
B14: 320-345 (antibody, human IgG1, name in Kabat numbering, V domains shown)
VH: B1 VH
VL: B1 VL with H91Q, G95K
notes: human IgG1, lambda
B15: 320-439 (antibody, human IgG1, name in Kabat numbering, V domains shown)
VH: B1 VH with Y32S
VL: B1 VL with H91Q
notes: human IgG1, lambda
B16: 320-434 (antibody, human IgG1, name in Kabat numbering, V domains shown)
VH: B1 VH with S31K
VL: B1 VL with H91Q
notes: human IgG1, lambda
B17: 320-370 (antibody, human IgG1, name in Kabat numbering, V domains shown)
VH: B1 VH
VL: B1 VL with H91Q, S98W
notes: human IgG1, lambda
B18: 320-367 (antibody, human IgG1, name in Kabat numbering, V domains shown)
VH: B1 VH
VL: B1 VL with H91Q, S98H
notes: human IgG1, lambda
B19: 320-449 (antibody, human IgG1, name in Kabat numbering, V domains shown)
VH: B1 VH with D33H
VL: B1 VL with H91Q
notes: human IgG1, lambda
B20: 320-433 (antibody, human IgG1, name in Kabat numbering, V domains shown)
VH: B1 VH with S31D
VL: B1 VL with H91Q
notes: human IgG1, lambda
B21: 320-438 (antibody, human IgG1, name in Kabat numbering, V domains shown)
VH: B1 VH with Y32A
VL: B1 VL with H91Q
notes: human IgG1, lambda
B22: 320-326 (antibody, human IgG1, name in Kabat numbering, V domains shown)
VH: B1 VH
VL: B1 VL with H91Q, Y93S
notes: human IgG1, lambda
B23: 320-318 (antibody, human IgG1, name in Kabat numbering, V domains shown)
VH: B1 VH
VL: B1 VL with H91Q, S92A
notes: human IgG1, lambda
B24: 320-369 (antibody, human IgG1, name in Kabat numbering, V domains shown)
VH: B1 VH
VL: B1 VL with H91Q, S98L
notes: human IgG1, lambda
B25: 320-440 (antibody, human IgG1, name in Kabat numbering, V domains shown)
VH: B1 VH with Y32Q
VL: B1 VL with H91Q
notes: human IgG1, lambda
B26: 320-453 (antibody, human IgG1, name in Kabat numbering, V domains shown)
VH: B1 VH with D33Y
VL: B1 VL with H91Q
notes: human IgG1, lambda
B27: 320-451 (antibody, human IgG1, name in Kabat numbering, V domains shown)
VH: B1 VH with D33L
VL: B1 VL with H91Q
notes: human IgG1, lambda
B28: 320-371 (antibody, human IgG1, name in Kabat numbering, V domains shown)
VH: B1 VH
VL: B1 VL with H91Q, S98Y
notes: human IgG1, lambda
B29: 320-446 (antibody, human IgG1, name in Kabat numbering, V domains shown)
VH: B1 VH with D33A
VL: B1 VL with H91Q
notes: human IgG1, lambda
B30: 320-435 (antibody, human IgG1, name in Kabat numbering, V domains shown)
VH: B1 VH with S31L
VL: B1 VL with H91Q
notes: human IgG1, lambda
B31: 320-432 (antibody, human IgG1, name in Kabat numbering, V domains shown)
VH: B1 VH with S31Q
VL: B1 VL with H91Q
notes: human IgG1, lambda

Assays:
[1] = target: T1, human TL1A extracellular domain with …; assay: SPR Run 4, purified Ab captured on Protein A, TL1A 5 ug/mL, timepoint 220
Source text: (§1) 1.5. Antibody expression and antigen binding as determined by SPR. Using a CM5 sensor chip (GE Healthcare) Protein A (Pierce) was coupled to the chip surface using an amine coupling kit (GE Healthcare). Protein A was coupled on flow cell 1 and 2 (or alternatively 3 and 4) using a BIACORE® T200. […] The amount of supernatant or purified protein (as well as the concentration) injected during the capture stage varied between runs and is specified in the header of the Tables 3-11. At the end of injection of the supernatant or purified antibody the change in response units was measured. This value was reported as Capture Level in Tables 3-11. […] The response units were measured prior to the end of the dissociation phase. […] The sensorgrams were double referenced (flow cell 2 is subtracted from flow cell 1 and a buffer blank). As there were a large number of antibody variants to screen, these were screened across different runs (Tables 3-11). […] A summary of the conditions used in each run is below:
(§2) 2.1. […] In some experiment the antibodies were purified using Protein A chromatography (See 1.4) and purified antibodies were used in BIACORE® (GE Healthcare) experiments.

[2] = target: T2, human TL1A extracellular domain with N-terminal HIS and FLAG tag (human); assay: cell-based or functional assay
[3] = target: T1, human TL1A extracellular domain with …; assay: SPR Run 4, purified Ab captured on Protein A, TL1A 5 ug/mL, timepoint 44
Source text: as §1, §2

[4] = target: T1, human TL1A extracellular domain with …; assay: SPR Run 6, purified Ab captured on Protein A, TL1A 5 ug/mL, timepoint 170
Source text: as §1, §2

[5] = target: T1, human TL1A extracellular domain with …; assay: SPR Run 6, purified Ab captured on Protein A, TL1A 5 ug/mL, timepoint 44
Source text: as §1, §2

Binder | TL1A Binding Level (Late) [1] | Antibody IC50, TL1A induced caspase potency assay in TF-1 cells [2] | Fold improvement over 320-179, TL1A induced caspase potency assay in TF-1 cells [2] | TL1A Binding Level (Early) [3] | TL1A Binding Level (Late) [4] | TL1A Binding Level (Early) [5]
B1 | 132 RU | 0.02 µg/mL | 2 fold | 141 RU | – | –
B2 | – | – | – | – | 67 RU | 80 RU
B3 | – | – | – | – | 118 RU | 129 RU
B4 | – | – | – | – | 113 RU | 124 RU
B5 | – | – | – | – | 95 RU | 107 RU
B6 | – | – | – | – | 23 RU | 27 RU
B7 | 158 RU | 0.02 µg/mL | 2 fold | 165 RU | – | –
B8 | 146 RU | 0.02 µg/mL | 1 fold | 155 RU | – | –
B9 | – | – | – | – | 37 RU | 43 RU
B10 | – | – | – | – | 78 RU | 84 RU
B11 | – | – | – | – | 109 RU | 119 RU
B12 | – | – | – | – | 13 RU | 37 RU
B13 | 26 RU | – | – | 50 RU | – | –
B14 | 154 RU | 0.02 µg/mL | 1 fold | 163 RU | – | –
B15 | – | – | – | – | 108 RU | 119 RU
B16 | – | – | – | – | 113 RU | 125 RU

Binder | TL1A Binding Level (Late) [1] | Antibody IC50, TL1A induced caspase potency assay in TF-1 cells [2] | Fold improvement over 320-179, TL1A induced caspase potency assay in TF-1 cells [2] | TL1A Binding Level (Early) [3] | TL1A Binding Level (Late) [4] | TL1A Binding Level (Early) [5]
B17 | 39 RU | – | – | 66 RU | – | –
B18 | 116 RU | – | – | 119 RU | – | –
B19 | – | – | – | – | 59 RU | 76 RU
B20 | – | – | – | – | 83 RU | 90 RU
B21 | – | – | – | – | 116 RU | 126 RU
B22 | 120 RU | 0.03 µg/mL | 2 fold | 126 RU | – | –
B23 | 149 RU | 0.02 µg/mL | 3 fold | 160 RU | – | –
B24 | 60 RU | – | – | 89 RU | – | –
B25 | – | – | – | – | 97 RU | 108 RU
B26 | – | – | – | – | 104 RU | 111 RU
B27 | – | – | – | – | 8 RU | 19 RU
B28 | 70 RU | – | – | 92 RU | – | –
B29 | – | – | – | – | 8 RU | 18 RU
B30 | – | – | – | – | 83 RU | 92 RU
B31 | – | – | – | – | 106 RU | 116 RU
